Test: label from the status in PepcDB records
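Also: failed if final PepcDB status was selected cloned or expressed and not failed if soluble or beyond.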

| Sequence | protein production |
| --- | --- |
| MDRECERDPYYDDLKVAKRAIEQMEMVAMMEGIPKFCPCGGSIVDTRKDEKRYYQCEKFKDDRTDLMHIRKLWDKAMEEEVSSLRESVDYNRKKVLSHEYLIEEMQKELKAHRAEIVNVSKVVFRNPMAPKK | failed |
| MDRIKSWEYDDVYNKFAIKDLDKSSFKRGSHIPIKVRKVFECEDIKYGDKKKITLIYKGEAFPAEIEGEIKGRIRMNWPKLIPKMKEVFKNEINDFEDSKELSVRVPRLKFTKETAIKYDVEMKTKYSHDVLCELERLDIDVENKTIEEINEVGEVIERVVKARKNQNKFREALFKRDGKCKICGLAHKELLIASHIKPWSKSTPEEKLNPFNGFLLCPNHDSLFDKHLISFKDNGEIIISKRLSEKEQELLSINKDIMINIEEGNKKFLKEHRDVFCKIEKAFDLEKELAISNKEIYNVELEV | failed |
| MDRLPILKLGDCLLVTIQVELHDRLALTLQDDLTTMIANTGARGVLIDISALDIVDSFIARVLGNIAAMSRVLGAETMVVGMQPAVAITLVELGVTWQHMHTALSVERGLERLKVLIAERHTLRGHSPRGKRGGGVDGSRH | failed |
| MDRLTEMEAFANVVDQGGFTDAAKKMGISKSAVSKHVSSLEARLGARLLNRTTRRVSPTEIGLAYYDRARRVLNDAGEADALVTSMQSAPSGLLRISVATDFGVNHLSPVLSDFLAEFPDITVNMVLNNRYVELISEGFDMAVRIGELEDSTLRARKLTETTKRMIASPKYFEKYGHPQKIDDLNEHKLLHYSSQASGNVWKLTAPSGEKRQVRTAGWLSVNDGQSLLNAAISGLGIAYLPCYLFAEAMEQGLVEDAMPSLPDEVQGIYAVYPPGRFTQPKVRAFIDFLVHSFADKGPMNW | not failed |
| MDSEAQQISLLIGKEDRYGRVEVNLMEVEPMNAEDFNAKLDVSFKAWKDQGKKGIWIKLPCELSSLVDIAMKKGFTYHHAENEYAVLSSWISDLPNTIPANASHRIGIGALVLNKNREVLAVQEIDGVFKDTGLWKLPTGVIQENRENFRYMANICLKRSQEKEYLGFSNVLTKNSTGKESYLYCSTDHAYFLKGKPDHSSTSLFTTLLRKCFSI | failed |
| MDSKDESSHVWPTSAEHEQNAAQVHFVPDTGTVAQIVYTDDQVRPPQQVVYTADGASYTSVDGPEHTLVYIHPVEAAQTLFTDPGQVAYVQQDATAQQASLPVHNQVLPSIESVDGSDPLATLQTPLGRLEAKEEEDEDEDEDTEEDEEEDGEDTDLDDWEPDPPRPFDPHDLWCEECNNAHASVCPKHGPLHPIPNRPVLTRARASLPLVLYIDRFLGGVFSKRRIPKRTQFGPVEGPLVRGSELKDCYIHLKVSLDKGDRKERDLHEDLWFELSDETLCNWMMFVRPAQNHLEQNLVAYQYGHHVYYTTIKNVEPKQELKVWYAASYAEFVNQKIHDISEEERKVLREQEKNWPCYECNRRFISSEQLQQHLNSHDEKLDVFSRTRGRGRGRGKRRFGPGRRPGRPPKFIRLEITSENGEKSDDGTQDLLHFPTKEQFDEAEPATLNGLDQPEQTTIPIPQLPQETQSSLEHEPETHTLHLQPQHEESVVPTQSTLTADDMRRAKRIRLELQNAALQHLFIRKSFRPFKCLQCGKAFREKDKLDQHLRFHGREGNCPLTCDLCNKGFISSTSLESHMKLHSDQKTYSCIFCPESFDRLDLLKDHVAIHINDGYFTCPTCKKRFPDFIQVKKHVRSFHSEKIYQCTECDKAFCRPDKLRLHMLRHSDRKDFLCSTCGKQFKRKDKLREHMQRMHNPEREAKKADRISRSKTFKPRITSTDYDSFTFKCRLCMMGFRRRGMLVNHLSKRHPDMKIEEVPELTLPIIKPNRDYFCQYCDKVYKSASKRKAHILKNHPGAELPPSIRKLRPAGPGEPDPMLSTHTQLTGTIATPPVCCPHCSKQYSSKTKMVQHIRKKHPEFAQLSNTIHTPLTTAVISATPAVLTTDSATGETVVTTDLLTQAMTELSQTLTTDYRTPQGDYQRIQYIPVSQSASGLQQPQHIQLQVVQVASATSPHQSQQSTVDVGQLHDPQPYPQHAIQVQHIQVSEPTASAPSSAQVSGQPLSPSAQQAQQGLSPSHIQGSSSTQGQALQQQQQQQQNSSVQHTYLPSAWNSFRGYSSEIQMMTLPPGQFVITDSGVATPVTTGQVKAVTSGHYVLSESQSELEEKQTSALSGGVQVEPPAHSDSLDPQTNSQQQTTQYIITTTTNGNGSSEVHITKP | failed |
| MDSLTSLTSFVRTAETLSFVQAARLLGISASAVGKNVARLEHKLGVRLFNRSTRNVSLTAEGAAFLTRCQSILEQIQEAESELTSSLSQPTGKLRISLPVIGYRLLLPALTAFSRLYPQVELDLDFSDRLVNLIDEGVDVAIRSGELADSRLIARKLGGFRFVLCASPAYLAEYGAPDSPAELAAHKCIFFRFPATGLIQPWELRGMRLTGDFRSAAVMTVNNIEAAIRLSAAGMGIAYVPDFVVREAMDEGQLQEVLPGCCIKDGHFSVLWPASRYLSPRIRCFIDFMAAAEIPLSPASAPPPLVSNNLR | failed |
| MDSSLANINQIDVPSKYLRLLRPVAWLCFLLPYAVGFGFGITPNASLQHAVLGLLSFAFWMAFSFTINALYDRDVDRLHDGRVKDLNLSMQPLVTGEISVREAWLYCIAFLALSLATAAAINEKFFLAMLGANIIGYVYSAPPRFKAWPVMDVICNALAAVLAFYAGLSIGGAEVPIAIYPAAFFLAATFYIPTAVSDYEFDKKAGLKNTPVFFGPERALKSLYPLSAITVILWAYVFLMAERIEIKVISPLIIAYTLIYTFIINSRWDGEKLNVSPNLILTPFGIISALFIAYGFAVISVLG | failed |
| MDSSSISSLLEDLKHSDALVREQATKKLWRIWFQQKGMYGLEKIDQSQKLLDAGEITEAEVMLTQLIQEQPDFAEAWNRRAFLYYSMGEYQKSLADCQMVIQINPVHFGALHGIGLCYAALGKYAKAIKAFKRALEIQPYSLVNQKLILECTFRLSLEHHHHHH | failed |
| MDTDFRVTGRNAAALFALTIHRGDGMVLLGMDWKNGRPPIDFVGFAIQYREPGTDFFKNVRNRIGFPGQPVPADGIRTTEAPIQKFRWVHFPFNADLPGKFLYRVTPKFMDAAGGLASGEAQEAELALMRETIPGKLNVAFTRGFVSSQAFVRNFAPDAPTIITLVPPVGDEGLDFVPTHADAERALAWMGFEARAETLDLLDRAQAAGAEVRVIAYDLNLPEVVTRLEALGPKLKIIIDDSARTDGHGRPDSPETKAAERLIASAGAANVKRQHMANLQHQKSIAVRGGGISTVLYGSTNLSWRGLYVQSNNSLAVHSEKAIDDYFTAFESYFTAKRAADFRSSASSAGWIDLGLDGVDAKVAFSPHSDANGRLDEIGADIDTAQSSVLFSLAFLGQMTRGAIGPALGRALERPEVHVMGIADAEVRAGNLGLNVLTPDNRRRVVRAAALTGNVPPPFLTEPSGLAGVDGNQRGTRMHHKFVVLDFDKPTARVYLGSYNFSNPADDENGENLVVVRDRTVATSYMIEALRMYDHYVFRVASEASDGPARPLELKRPPQPGGTPWFERDWTDPIRARDRELFARAE | failed |
| MDTDWSNLAVRLERLLERFERIIDRHDPVLPRDPAFFDGAIAFRWRRSGEQGTFEPVTHPHLPDPADLVGIDLVREDLIRNTAQFMDGYPANNVLLWGERGTGKSTCVKGMLRLFADRGLRLVEVQRDDLMSLPALIAALRSVPRRFILFCDDLSFGEGEGGYRELKALLEGSIEAKPTNILFYATSNRRHLLPERMEDNLSSEIHPEEAVSEKLSLADRFGMALGFYPFSQDVYLSIVERYAEKFALPMEREALRKEAHLWAMYRGSRSGRSARQFIDDLAGRLGVRLNDRLEHHHHHH | failed |
| MDTEADLFYRQLPKVELHAHLNGSVSFETMEKLIKRKPHLNIEHSMTAIRRGQRRTLDECFQVFKVIHQLVDSEEDILMVAKSVIQEFAADGVKYLELRSTPREVTETGLSKQRYIETVLEAIRQCKQEGVDIDVRFLVAVDRRHGPEVAMQTVKLAEDFLLSSDGTVVGLDLSGDPTVGHGKDLLAALQKAKNCGLKLALHLSEVPSQIDETELLLNLPPDRIGHGTFLHPDVGGSDSLVDKVCKQNIPIEICLTSNVKGQTVPSYDKHHFKYWYNRGHPCVLCTDDKGVFCTDLSQEYQLAASTFGLTKEAVWILSQQAIGYTFAPEPIKQRLEKTWAELKQQILQ | failed |
| MDTIQKRPRTRLSPEKRKEQLLDIAIEVFSQRGIGRGGHADIAEIAQVSVATVFNYFPTREDLVDDVLNKVENEFHQFINNSISLDLDVRSNLNTLLLNIIDSVQTGNKWIKVWFEWSTSTRDEVWPLFLSTHSNTNQVIKTMFEEGIERNEVCNDHTPENLTKMLHGICYSVFIQANRNSSSEEMEETANCFLNMLCIYK | failed |
| MDTLKVRDAQEVEDAVRAAIANEQPIEIVGHGSKRSIGQLMSTNAVLELSALNAVTAYEPNELIITVQAGAPMADVLSLIDSKNQQFAFEPMDTATLLGTTPGAGTVAGMISAGLAGPRRIKAGGARDHLLGANAVSGFGESFKAGGKVVKNVTGYDLCKLLAGSWGTLAVMTEVTLKVTPRPESERTLVLRGLADVVANKAMTAALGSPYDVTGAAHLPGSALRTTAGALAEIAQPDQSLTLLRLEGITSSASHRAQSLRAALKSFGDAELIEDDASAALWRAVRDVEPFAASGPRALWPVWRIVCPPAAGGAFGEQLSRESGGEVIYDWGGGLIWAALPPATDGHAKALRQRVEKIGGHATLIRGSDAVRAGIDIFHPQPAGLAALGSRVKRSFDPTNILNRGRMSRGSAT | failed |
| MDTNGVLYAANMTNALAKEIPESKWDIQLIPELGTLRKLFIHIVRVRDVYRDGLKTGSIKFPGRLASDEHRLLDELERSMEELVFEFKQTTFNSIKMGENYLSIMELLGTVIQHEGIHQGQYYVALKQSGINLPKQWVQDWHM | not failed |
| MDTPPTVFSIIIPVYNRPDEVRELLESLLIQTNSDFEVIIVEDGSSVCCDKEVDRVRELLRIQYVRVPNGGPAAARNIGARMAVGEYLLILDSDVVLPSGYIAAVKKRIEQMQADAFGGPDAAAEGFSPIQKAINYAMTSFFTTGGIRGGRRVRLDKFYPRSFNFGCKLSVYRQLGGFSEEMRFGEDIDFSLRLFKAGYNVCLFPEAFVFHKRRIDFKKFFRQVYNSGIARIHLQRRHPGSMKPVHILPALFTLGSVILAVGQFFCPWSLLPLLLLALLFLLDAWHTNRSLRIAILAVPASFVQLWGYGSGFLVACWRCYVLGHQEFRAFDKTFYN | failed |
| MDTRFCSSLLIKNLNTFPASNKEIMNVTVSEAERNAGDERPDLQACAEAYAIVNSAFTKAVTFFKQAYYSKIVNIEKKVSMAVDICKTDFNVLGYQINPLIEKNRQTKILLSMEQIVSHMVSS | failed |
| MDTTCLVLTWMGSRVPIETIEEDGEFDWEAAVKEIDLACLKTTNAHPPITENLTKPPAKRQSTLDKFIGRTEPKPENHQVVSECGGNDNDNSLLVEIDPEAAKTWIYRGLLRLLTF | failed |
| MDTTFGLDLARVETLFKRELRRFDELHPRSAQAYRENRRHWLYGAPLHWMQQWPGNCPLLVKEAQGARVTDIDGQQYVDFALGDSGAMFGHAQPAVADAIARQARRGSTLMLPTEDSLWVGAELARRFGLPYWQVTTSATDANRFVLRLCRMLSGRDKVVVFNCNYHGSVDESQVEFDAAGRMVPRAGVHPNGVRHATTTRLVEFNDLDALEAALAHGDVAAVLTEPFMTNVGMVPPAEGFHAGLRELTRRHDVALIIDETHTISCGPAGYSGAHGLEPDFFVLGKCIAGGIPSAVWGCSQAQAERIWAVLPHFRPGQAINHFGFGGTLAGNALQLAAMRATFAEVMTEDAYRHMFQLAAQLEAGVRATLEELRLPWHVTRIGARVEYLFMTHAPRNGGEAHHARNGLIEACLHLYLLNRGVLLTPFHNMALTCPATRAEDVELHDRLLRDCLGELLERPS | failed |
| MDTVWMEIWTTVRNEFADIPDVAEATRIVLRLGMAVALGGLLGYERERSGKAAGLRTHMLVALGAALFVLVPLQGGMEVGDLSRVLQGVIAGIGFLGAGAIIKLGNEGEIRGLTTSAGIWLTAAIGVAAGMGREATALASTLIALFVLAALRHLEKRIAARDDKRVVAQPPP | failed |

From a protein production outcome set (Wang et al. 2014)
